Laboratory results reported in patent publication US20190194722, “METHOD” (Oxford Nanopore Technologies Ltd., published 2019).

Assays:
MuA transposase [1] = biological target: T1, MuA transposase (UniProt P07636 P07636:1-663); assay: MuA stays bound after transposition into PhiX174 at room temperature (no Bioanalyser peak); released at 75 C; 10 mM MgCl2, 110 mM NaCl, pH 8; settings: tags: ThermoFisher Scientific; chain copies: 4; 3' overhang on bottom strand
Method: Transpososome 1 and transpososome 2 were each mixed to 50 nM with 1.5 ug of PhiX174 RFI DNA (New England Biolabs) in 25 mM Tris.HCl pH8, 110 mM NaCl and 10 mM MgCl₂ in a 30 ul reaction in a 0.2 ml PCR tube. Each reaction was incubated at room temperature for 2 minutes before being split […] to form 3 tubes of 10 uls for each. 1 tube of each transpososome was incubated at 75° C. for 5 minutes, 1 tube of each transpososome was left at room temperature for 5 minutes with nothing added. Hel308Mbu-E284C/S615C-STrEP(C) (1 uM) was added to the final tubes along with 10 mM of ATP (Sigma-Aldrich) and incubated at room temperature for 5 minutes. 1 ul of each reaction was then analysed on the Agilent 2100 Bioanalyser 12,000 bp setting, along with 1 ul of unmodified PhiX.

MuA transposase [2] = biological target: T1, MuA transposase; assay: MuA stays bound at room temperature; tagmentation peak only after 75 C; MgCl2 buffer; settings: tags: ThermoFisher Scientific; chain copies: 4; 5' bottom strand flap, 12 nt 5' tail on top strand, 10 nt 3' tail on bottom strand
Method: A transposome complex was formed but addition of 1 ul of the MuA adapter, 4.5 ul of nuclease free water, 2 ul of 5× transposome buffer (125 mM Tris pH 8, 550 mM NaCl, 2.5 mM EDTA, 50% glycerol, 0.25% Triton-X100) and 2.5 ul of concentrated MuA transposase (Thermofisher). The mixture was then incubated at 30° C. for 1.5 hours.
A transposition reaction, containing 10 ul of 5× transposase buffer (125 mM Tris pH 8, 550 mM NaCl, 50 mM MgCl2), 5 ul transposome, 2.5 ug PhiX RFI (NEB) and nuclease free water to 50 ul, was then carried out at room temperature for 10 minutes. After 10 mins 6.25 ul of 100 mM rATP was added and the reaction was split into 5×11.25 ul. To sample (i) and (ii) 1.25 ul of nuclease free water was added; to sample (iii) 1.25 ul of Hel308Mbu-E284C-STrEP(C) (SEQ ID NO: 10 with mutation E284C with a streptavidin tag attached at its C terminus) was added; to sample (iv) 1.25 ul of T4 Dda—(E94C/F98W/C109A/C136A/A360C) (SEQ ID NO: 97 with mutations E94C/F98W/C109A/C136A/A360C and then (ΔM1)G1G2 (where (ΔM1)G1G2=deletion of M1 and then addition G1 and G2), was added; to sample (v) 1.25 ul of UvrD Eco-(E117C/M380C)-STrEP (SEQ ID NO: 122 with mutations E177C/M380C with a streptavidin tag attached at the C terminus). Samples (i), (iii), (iv) and (v) were then left at room temperature for 10 mins while sample (ii) was left at 75° C. for 10 mins. […]

T1 sequence (P07636 whole entry, one chain of several): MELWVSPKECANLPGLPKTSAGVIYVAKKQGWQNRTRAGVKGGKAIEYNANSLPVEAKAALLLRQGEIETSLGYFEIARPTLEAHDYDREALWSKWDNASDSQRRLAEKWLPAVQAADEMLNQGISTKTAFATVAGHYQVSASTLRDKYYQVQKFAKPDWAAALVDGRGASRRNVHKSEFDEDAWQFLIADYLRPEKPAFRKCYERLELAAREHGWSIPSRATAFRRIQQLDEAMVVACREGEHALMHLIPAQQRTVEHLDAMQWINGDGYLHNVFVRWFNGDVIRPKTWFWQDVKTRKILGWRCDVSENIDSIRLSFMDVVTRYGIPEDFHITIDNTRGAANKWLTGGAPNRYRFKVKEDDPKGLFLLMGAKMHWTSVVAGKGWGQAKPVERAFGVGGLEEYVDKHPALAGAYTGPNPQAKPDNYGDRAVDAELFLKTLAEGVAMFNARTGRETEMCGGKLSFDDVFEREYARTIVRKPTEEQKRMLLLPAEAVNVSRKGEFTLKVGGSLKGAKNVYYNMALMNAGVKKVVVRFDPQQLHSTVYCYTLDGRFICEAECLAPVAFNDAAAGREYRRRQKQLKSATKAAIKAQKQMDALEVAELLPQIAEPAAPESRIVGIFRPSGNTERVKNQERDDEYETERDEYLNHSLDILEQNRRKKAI

Binder | binding result (MuA transposase [1]) | binding result (MuA transposase [2])
transposon 2 (dsDNA) DNA 1: GTTTTCGCATTTATCGTGAAACGCTTTCGCGTTTTTCGTGCGCCGCTTCA DNA 2: GATCTGAAGCGGCGCACGAAAAACGCGAAAGCGTTTCACGATAAATGCGAAAACTTTTTTTTTT | binds | 
MuA adapter (Example 2) (dsDNA) DNA 1: GATCTGAAGCGGCGCACGAAAAACGCGAAAGCGTTTCACGATAAATGCGAAAACTTTTTTTTTT DNA 2: TGCTGATATTGCGTTTTCGCATTTATCGTGAAACGCTTTCGCGTTTTTCGTGCGCCGCTTCA |  | binds
